Patent US20220153834A1 (published 2022)
Changes are numbered by the printed parent chain. Blank lines part the entries; values can stand above or below the binder they belong to.

Tests used:
[1] = biological target: T1, Recombinant human TSG-6 (R&D Biosystems, catalog #2104-TS) (human, UniProt P98066 18-277); experiment: inhibition of HC-HA transesterase activity; HC-HA transesterase
[2] = biological target: T1, Recombinant human TSG-6 (R&D …); experiment: inhibition of HA binding to TSG-6; HA binding

T1 sequence (P98066 18-277): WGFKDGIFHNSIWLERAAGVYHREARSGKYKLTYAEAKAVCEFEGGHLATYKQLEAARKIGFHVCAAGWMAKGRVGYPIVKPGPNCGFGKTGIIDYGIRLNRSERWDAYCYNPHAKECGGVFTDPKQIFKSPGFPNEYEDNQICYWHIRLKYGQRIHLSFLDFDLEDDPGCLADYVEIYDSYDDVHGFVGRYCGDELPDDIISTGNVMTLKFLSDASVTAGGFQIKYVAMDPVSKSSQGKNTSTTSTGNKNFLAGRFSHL

B1: 3E4 (antibody, V domains shown)
VH: QVQLQQPGAELVKPGASVKLSCKASGYTFTSQWMHWVKQRPGQGLEWIGMIHPNSGSTNNNEKFKSKATLTVDKSSSTAYMQLSSLTSEDSAVYYCTRWAMDYWGQGTSVTASS
VL: DVVMTQTPLSLPVSLGDLASISCRSSQSLVHSNGNTYLHWYLQKPGQSPKLLIFKVSNRFSGVPDRFSGSGSGTDFTLKISRVEAEDLGVYFCSQSTHVPWTFGGGTKLEIKR
- IC50 [1]: > 3000 nM
- IC50 [2]: 290 nM

B4: 4E4 (antibody, V domains shown)
VH: QVQLQQPGAELVKPGASVKLSCKASGYTFTSYWMHWVKQRPGQGLEWIGMIHPNSGSTNYNEKFKNKATLTVDKSSSTAYMQLSSLTSEDSAVYYCAPRMFDDYDDYWGQGTTLTVSS
VL: QIVLTQSPAIMSASLGERVTMTCTASSSVSSSYLHWYQQKPGSSPKLWIYSTSNLASGVPVRFSGSGSGTSYSLTISRMEAEDAATYYCHHYHRSPYTFGGGTKLEIKR
- IC50 [1]: 140 nM
- IC50 [2]: > 667 nM

B5: 3C6 (antibody, V domains shown)
VH: EVQLQQSGPELVKPGASVKIPCKASGYTFTDYNMDWVKQSHGESLEWIGDIYPNNGGTIYNQKFKDKATLTVDKSSSTAYMELRSLTSEDNAVYYCARKTGTGFDYWGQGTTLTVSS
VL: QIVLSQSPAILSASPGEKVTMTCRARSSVIYMHWYQQKPGSSPKPWIYATFNLASGVPARFSGSGSGTSYSLTISRVEAEDAATYYCQQWSSNPPTFGSGTKLEIKR
- IC50 [1]: 12 nM
- IC50 [2]: 10 nM

B8: 3E1 (antibody, V domains shown)
VH: QVQLQQSGAELAKPGASVRLSCQASGYTFTSYWMHWVKQRPRQGLEWIGYIIPSSGYTKCHQKFKDKATLTADKSSSTAYMQLSSLTYEDSAVYYCARSTSGYPYYFDSWGQGTTLTVSS
VL: ENVLTQSPAIMSASPGERVTMTCSATSSVSFMHWYQQKSSTSPKLWIYDTSKLASGVPGRFSGSGSGNSYSLTISSMEAEDVATYYCFQGSWYPLTFGAGTKLELKR
- IC50 [1]: 10 nM
- IC50 [2]: > 667 nM

B11: 1A9 (antibody, V domains shown)
VH: EVQLQQSGPELVKPGASVKISCKASGYTFTDYYMNWVKQSHEKSLEWIGDINPNNGGTSYNQKFMGKATLTVDKSSRTAYMELRSLTSEDSTVYYCARWGIYDRFTYWGQGTLVSVSA
VL: DIKMTQSPSSMYASLGERVTIACKASQDINSFLSWFQQKPGKSPKTLIYRANRLVDGVPSRFSGSGSGQDYSLTISSLEYEDMGIYYCLQYDEFPLTFGAGTKLELKR
- IC50 [1]: 375 nM
- IC50 [2]: 32 nM

B12: 1D7 (antibody, V domains shown)
VH: B11 VH with E42G, S59T, M65K, R77S, T92A, Y102F, L113V, S115T
VL: B11 VL with L15R, A22T
- IC50 [1]: 1100 nM
- IC50 [2]: 47 nM

Continued, values first:

- IC50 [1]: 68 nM
- IC50 [2]: > 667 nM
B2: 5B4 (antibody, V domains shown)
VH: QVQLQQPGAELVKPGASVKLSCKASDYTFTNYWMHWVKQRPGRGLEWIGRIDPSSGGAKYNEKFKSKATLTVDKPSSTAYMEFSSLTSEDSAVYYCVRSRYDYDGWFAYWGLGTLVTVSA
VL: DIVMTQAAPSVPVTPGESVSISCRSSKSLLHSNGNTYLYWFLQRPGQSPQLLIYRMSNLASGVPDRFSGSGSGTAFTLRISRVEAEDVGVYYCMQHLEYPFTFGGGTKLEIKR

- IC50 [1]: 4 nM
- IC50 [2]: ~1400 nM
B3: 5D9 (antibody, V domains shown)
VH: QVQLQQSGAELARPGASVKLSCKASDDTFINYGINWVKQRTGQGLEWIGETFPSNGNTFYNEKFKGKATLTADRSSSTTYMELRSLTSEDAAVYFCARHSNLPYFDHWGQGSTLTVSS
VL: DIVMTQSPSSLSVSAGEKVTMSCKSSQSLLNSGNQKNYLAWYQQKPGQPPKLLIYGASTRESGVPERFTGSGSGTDFTLTISSVQAEDLAVYYCQNDHSYPFTFGGGTNLEIKR

- IC50 [1]: 8 nM
- IC50 [2]: > 667 nM
B6: 5A5 (antibody, V domains shown)
VH: B8 VH with S31T, T58S, S77N, Y80S, S109Y
VL: B8 VL with R18K, F31Y

- IC50 [1]: 19 nM
- IC50 [2]: > 2000 nM
B7: anti-TSG-6 antibody of SEQ ID NO: 1 and SEQ ID NO: 2 (first entry of Table 1, clone name not printed) (antibody, V domains shown)
VH: QVRLQQSGAELAKPGASVKLSCKASGYTFTSYWMHWVKQRPGQGLEWIGYIIPSSGYTKNKQNFKDKATLTADKSSSTAYMQLSNLTYEDSAVYSCARSDGSYPYYFDYWGQGTTLTVSS
VL: B8 VL with R18K, T26S, F31Y, W92G, A99S, L105I

- IC50 [1]: 36 nM
- IC50 [2]: > 667 nM
B9: ID12 (antibody, V domains shown)
VH: QVQLQQSGPELVKPGASVKLSCKTSGYTFTSYDINWVKQRPGQGLEWIGWIYPSDGSTKFNEKFKGMATLTVDTSSSTAYMELHSLTSEDSTVYFCARGLWYYGGGVDYWGQGTSVTVSS
VL: DAVMTQTPLSLPVSLGDQASISCRSTQSLEDSNGNTYLNWYLQKPGQSPQLLIYRVSNRFSGVLDRFSGSGSGTDFTLKISRVEAEDLGVYFCLQVTHVPYTFGGGTKLEIKR

- IC50 [1]: 44 nM
- IC50 [2]: > 667 nM
B10: 4F1 (antibody, V domains shown)
VH: EVKLVESGGGLVQPGGSLSLSCAASGFTFTDYYMSWVRQPPGKALEWLGFIRHKAKGYTAEYSASVKGRFTISRDNSQSILYLQMNALRAEDSATYYCARLYYYGSPHWYFDVWGTGTTVTVSS
VL: QIVLTQSPAIMSASPGEKVTMTCSASSSVSYMHWYQQKSGTSPKRWIYDTSKLASGVPARFSGSGSGTSYSLTISSMEAEDAATYYCQQWSSNPPTFGSGTELEIKR
